Experimental data taken from patent US20210393800A1, “PREPARATION AND APPLICATION OF SUPRAMOLECULAR SELF-ASSEMBLED HYALURONIC ACID HYDROGEL” (PHI BioMed Inc., priority 2018, published 2021).

Assay: Protein release experiment (EGF in supernatant by HPLC)
Type: physicochemical
Conditions: 20 ug/ml in HA-Ad/HA-CD hydrogel, 500 ul PBS; for amount of EGF released over time (rank order): supernatant by HPLC according to date
Protocol: Aldehyde groups were introduced to the hyaluronic acid-adamantane (HA-Ad) derivative and hyaluronic acid (HA) using […].
The HA-Ad derivative and HA, to which the aldehyde group had been introduced, were allowed to react with an EGF protein using sodium cyanoborohydride to induce an aldehyde-amine reaction, thereby preparing conjugates. Through the aldehyde-amine reaction, a HA-Ad-EGF conjugate and a HA-EGF conjugate were prepared.
Each of EGF, the prepared HA-Ad-EGF conjugate, and the prepared HA-EGF conjugate was added at a concentration of 20 ug/ml to a 5 wt % hyaluronic acid-adamantane (HA-Ad) derivative solution. 50 ul of a 5 wt % hyaluronic acid-cyclodextrin (HA-CD) derivative solution was added to 50 ul of each of the resulting solutions and then mixed to prepare a hydrogel.
The hydrogel was input into an E-tube and centrifuged to remove air bubbles inside the gel. 500 ul of PBS was added to each hydrogel.
The concentration of EGF included in a supernatant was analyzed by high-performance liquid chromatography (HPLC) according to date.

| Substance | amount of EGF released over time (rank order) | protein release behaviour |
| --- | --- | --- |
| EGF: EGF protein used by itself in preparation of the hydrogel | HA-Ad-EGF<HA-EGF<EGF |  |
| HA-Ad-EGF: EGF protein bound to aldehyde-modified HA-Ad derivative through an aldehyde-amine reaction; carried in the hydrogel | HA-Ad-EGF<HA-EGF<EGF | release a constant concentration of protein most slowly for a long period of time |
| HA-EGF: EGF protein bound to aldehyde-modified hyaluronic acid through an aldehyde-amine reaction; carried in the hydrogel | HA-Ad-EGF<HA-EGF<EGF |  |
